Test results reported in patent US20200024360A1 (Janssen / Centocor, published 2020).
Residue numbers refer to the chain shown, from its start. Names and notes keep the numbering of the source.

B1: PS3B60 (bispecific antibody, human IgG4 S228P, kappa, lambda, F234A L235A)
heavy 1: not shown
light 1: not shown
heavy 2: EVQLVESGGGLVQPGGSLRLSCAASGFTFNTYAMNWVRQAPGKGLEWVARIRSKYNNYATYYAASVKGRFTISRDDSKNSLYLQMNSLKTEDTAVYYCARHGNFGNSYVSWFAYWGQGTLVTVSSASTKGPSVFPLAPCSRSTSESTAALGCLVKDYFPEPVTVSWNSGALTSGVHTFPAVLQSSGLYSLSSVVTVPSSSLGTKTYTCNVDHKPSNTKVDKRVESKYGPPCPPCPAPEAAGGPSVFLFPPKPKDTLMISRTPEVTCVVVDVSQEDPEVQFNWYVDGVEVHNAKTKPREEQFNSTYRVVSVLTVLHQDWLNGKEYKCKVSNKGLPSSIEKTISKAKGQPREPQVYTLPPSQEEMTKNQVSLTCLVKGFYPSDIAVEWESNGQPENNYKTTPPVLDSDGSFLLYSKLTVDKSRWQEGNVFSCSVMHEALHNHYTQKSLSLSLGK
light 2: QTVVTQEPSLTVSPGGTVTLTCRSSTGAVTTSNYANWVQQKPGQAPRGLIGGTNKRAPGTPARFSGSLLGGKAALTLSGVQPEDEAEYYCALWYSNLWVFGGGTKLTVLGQPKAAPSVTLFPPSSEELQANKATLVCLISDFYPGAVTVAWKADSSPVKAGVETTTPSKQSNNKYAASSYLSLTPEQWKSHRSYSCQVTHEGSTVEKTVAPTECS
notes: IgG4 PAA; PSMA arm first, then CD3 arm (F405L, R409K); also called PSMB344 x CD3B219
B2: PS3B61 (bispecific antibody, human IgG4 S228P, kappa, lambda, F234A L235A)
heavy 1: not shown
light 1: not shown
heavy 2: B1 heavy 2
light 2: B1 light 2
notes: IgG4 PAA; PSMA arm first, then CD3 arm (F405L, R409K); also called PSMB345 x CD3B219
B3: PS3B62 (bispecific antibody, human IgG4 S228P, kappa, lambda, F234A L235A)
heavy 1: not shown
light 1: not shown
heavy 2: B1 heavy 2
light 2: B1 light 2
notes: IgG4 PAA; PSMA arm first, then CD3 arm (F405L, R409K); also called PSMB346 x CD3B219
B4: PS3B63 (bispecific antibody, human IgG4 S228P, kappa, lambda, F234A L235A)
heavy 1: not shown
light 1: not shown
heavy 2: B1 heavy 2
light 2: B1 light 2
notes: IgG4 PAA; PSMA arm first, then CD3 arm (F405L, R409K); also called PSMB347 x CD3B219
B5: PS3B64 (bispecific antibody, human IgG4 S228P, kappa, lambda, F234A L235A)
heavy 1: not shown
light 1: not shown
heavy 2: B1 heavy 2
light 2: B1 light 2
notes: IgG4 PAA; PSMA arm first, then CD3 arm (F405L, R409K); also called PSMB349 x CD3B219
B6: PS3B70 (bispecific antibody, human IgG4 S228P, kappa, lambda, F234A L235A)
heavy 1: not shown
light 1: not shown
heavy 2: B1 heavy 2
light 2: B1 light 2
notes: IgG4 PAA; PSMA arm first, then CD3 arm (F405L, R409K); also called PSMB358 x CD3B219
B7: PS3B71 (bispecific antibody, human IgG4 S228P, kappa, lambda, F234A L235A)
heavy 1: not shown
light 1: not shown
heavy 2: B1 heavy 2
light 2: B1 light 2
notes: IgG4 PAA; PSMA arm first, then CD3 arm (F405L, R409K); also called PSMB359 x CD3B219
B8: PS3B72 (bispecific antibody, human IgG4 S228P, kappa, lambda, F234A L235A)
heavy 1: not shown
light 1: not shown
heavy 2: B1 heavy 2
light 2: B1 light 2
notes: IgG4 PAA; PSMA arm first, then CD3 arm (F405L, R409K); also called PSMB360 x CD3B219
B9: PS3B73 (bispecific antibody, human IgG4 S228P, kappa, lambda, F234A L235A)
heavy 1: not shown
light 1: not shown
heavy 2: B1 heavy 2
light 2: B1 light 2
notes: IgG4 PAA; PSMA arm first, then CD3 arm (F405L, R409K); also called PSMB361 x CD3B219
B10: PS3B74 (bispecific antibody, human IgG4 S228P, kappa, lambda, F234A L235A)
heavy 1: not shown
light 1: not shown
heavy 2: B1 heavy 2
light 2: B1 light 2
notes: IgG4 PAA; PSMA arm first, then CD3 arm (F405L, R409K); also called PSMB362 x CD3B219
B11: PS3B75 (bispecific antibody, human IgG4 S228P, kappa, lambda, F234A L235A)
heavy 1: not shown
light 1: not shown
heavy 2: B1 heavy 2
light 2: B1 light 2
notes: IgG4 PAA; PSMA arm first, then CD3 arm (F405L, R409K); also called PSMB363 x CD3B219
B12: CD3B150 (antibody, V domains shown)
VH: EVQLLESGGGLVQPGGSLRLSCAASGFTFNTYAMNWVRQAPGKGLEWVARIRSKYNNYATYYADSVKGRFTISRDNSKNTLYLQMNSLRAEDTAVYYCAKHGNFGNSYVSWFAYWGQGTLVTVSS
VL: QTVVTQEPSLTVSPGGTVTLTCRSSTGAVTTSNYANWVQQKPGQAPRGLIGGTNKRAPGTPARFSGSLLGGKAALTLSGVQPEDEAEYYCALWYSNLWVFGGGTKLTVL
notes: also called CD3H142/CD3L66; CD3B50
B13: CD3B143 (antibody, V domains shown)
VH: B12 VH with L5V, D64A, N76D, T80S, R89K, A90T, K100R
VL: B12 VL with T2A, V80A
notes: also called CD3H141/CD3L63
B14: CD3B146 (antibody, V domains shown)
VH: B12 VH with L5V, D64A, N76D, T80S, R89K, A90T, K100R
VL: B12 VL
notes: also called CD3H141/CD3L66
B15: CD3B158 (antibody, V domains shown)
VH: EVQLVESGGGLVQPGGSLKLSCAASGFTFNTYAMNWVRQASGKGLEWVGRIRSKYNGYATYYAASVKGRFTISRDDSKNTAYLQMNSLKTEDTAVYYCTRHGNFGNSYVSWFAYWGQGTLVTVSS
VL: B12 VL
notes: also called CD3H144/CD3L66
B16: CD3B147 (antibody, V domains shown)
VH: B12 VH
VL: B12 VL with T2A, V80A
notes: also called CD3H142/CD3L63
B17: CD3B151 (antibody, V domains shown)
VH: B12 VH with A99V
VL: B12 VL with T2A, V80A
notes: also called CD3H143/CD3L63
B18: CD3B154 (antibody, V domains shown)
VH: B12 VH with A99V
VL: B12 VL
notes: also called CD3H143/CD3L66
B19: CD3B155 (antibody, V domains shown)
VH: B15 VH
VL: B12 VL with T2A, V80A
notes: also called CD3H144/CD3L63
B20: CD3B148 (antibody, V domains shown)
VH: B12 VH
VL: QSVLTQPPSVSAAPGQKVTISCRSSTGAVTTSNYANWVQQLPGTAPKGLIGGTNKRAPGIPDRFSGSKSGTSATLGITGLQTGDEADYYCALWYSNLWVFGGGTKLTVL
notes: also called CD3H142/CD3L64
B21: CD3B156 (antibody, V domains shown)
VH: B15 VH
VL: B20 VL
notes: also called CD3H144/CD3L64
B22: CD3B124 (antibody, V domains shown)
VH: EVKLLESGGGLVQPKGSLKLSCAASGFTFNTYAMNWVRQAPGKGLEWVARIRSKYNNYATYYADSVKDRFTISRDDSQSILYLQMNNLKTEDTAMYYCVRHGNFGNSYVSWFAYWGQGTLVTVSA
VL: QAVVTQESALTTSPGETVTLTCRSSTGAVTTSNYANWVQEKPDHLFTGLIGGTNKRAPGVPARFSGSLIGDKAALTITGAQTEDEAIYFCALWYSNLWVFGGGTKLTVL
notes: also called chimeric SP34-derived antibody

Legend:
[1] = biological target: T1, human PSMA (prostate specific membrane antigen), full length (human, UniProt Q04609 1-750); assay: flow cytometry cell binding assay, bispecific antibody titrated on LNCaP cells (human PSMA)
T1 construct: On LNCaP or C4-2B cells (endogenous) or transduced HEK293F cells; also called FOLH1_HUMAN; hPSMA
T1 sequence (Q04609 whole entry): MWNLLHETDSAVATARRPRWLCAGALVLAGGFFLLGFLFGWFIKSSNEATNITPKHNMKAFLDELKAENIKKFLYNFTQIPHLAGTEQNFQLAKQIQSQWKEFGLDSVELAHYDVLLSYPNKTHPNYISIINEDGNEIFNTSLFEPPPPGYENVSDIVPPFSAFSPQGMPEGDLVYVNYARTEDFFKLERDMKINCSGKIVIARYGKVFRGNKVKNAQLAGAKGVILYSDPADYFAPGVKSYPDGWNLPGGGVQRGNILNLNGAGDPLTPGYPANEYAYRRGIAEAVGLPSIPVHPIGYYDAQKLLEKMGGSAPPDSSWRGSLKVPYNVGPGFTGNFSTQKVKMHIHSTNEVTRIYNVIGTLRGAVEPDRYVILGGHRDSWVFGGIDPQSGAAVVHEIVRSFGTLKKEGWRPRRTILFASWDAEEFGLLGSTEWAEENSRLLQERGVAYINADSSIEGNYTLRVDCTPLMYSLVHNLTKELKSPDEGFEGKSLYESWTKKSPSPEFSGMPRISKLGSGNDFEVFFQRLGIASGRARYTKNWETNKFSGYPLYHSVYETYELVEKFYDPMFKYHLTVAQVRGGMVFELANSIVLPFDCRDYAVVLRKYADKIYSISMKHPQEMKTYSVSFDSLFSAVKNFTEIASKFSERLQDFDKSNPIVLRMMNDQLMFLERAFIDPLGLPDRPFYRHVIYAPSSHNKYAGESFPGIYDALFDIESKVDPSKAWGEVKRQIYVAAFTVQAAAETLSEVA
Description: PSMA×CD3 bispecific antibodies were tested for binding to PSMA positive cell lines LNCAP, human PSMA-HEK, Chimpanzee-PSMA-HEK and Cynomolgous monkey PSMA-HEK. To assess the binding capabilities of the PSMA bispecific antibodies, the cell-binding assay was utilized (described previously). Briefly, PSMA expressing tumor cells are bound by bispecific antibodies at known concentrations and the bound antibody is detected by an anti-human kappa light chain PE conjugated detection reagent (Invitrogen). The Mean Fluorescents Intensity (MFI) is the measure of bound bispecific antibody. The MFI is converted to a relative EC₅₀. EC₅₀ is a commonly used dose-response curve, where the half maximal effective concentration or the EC₅₀ point is defined as the inflection point of the curve. EC₅₀ s were determined by measuring cell bound bispecific and known concentrations. […] The dose response curves were then diluted down to that of background or no bispecific binding. The inflection point of this curve reflects the EC₅₀ point. The calculated EC₅₀ is determined by taking the ug/ml amount of bispecific antibody at the EC₅₀ point and converting it to a molarity value based on the MW of the bispecific antibody. Bispecific antibodies were normalized for protein concentration and then incubated with the same number of cells expressing either human or cyno PSMA. The MFI at each concentration was collected by flow cytometry and plotted as a function of concentration. Data was transformed via log 10 and then plotted. Nonlinear regression of binding curves was done to determine EC₅₀ s. These relative values were used for ranking PSMA binding to target cells.
PSMA×CD3 bispecific antibodies were tested for binding to PSMA positive cell line, LNCAP, to PSMA negative cell line, PC3. To assess the binding capabilities of the PSMA bispecific antibodies, the cell-binding assay was utilized (described previously). Bispecific antibodies were normalized for protein concentration and then incubated with the same number of cells expressing either human or cyno PSMA. The MFI at each concentration was collected by flow cytometry and plotted as a function of concentration.

[2] = biological target: T2, human CD3ε on primary human T cells (human, UniProt P07766 23-207); assay: flow cytometry on primary human T cells (cell-surface CD3e), anti-human IgG (H+L) Alexa Fluor 647; one intermediate concentration of the titration is shown
T2 construct: whole, on cells; Part of the TCR-CD3 complex on the cells; also called cell-surface CD3ε; CD3E
T2 sequence (P07766 23-207): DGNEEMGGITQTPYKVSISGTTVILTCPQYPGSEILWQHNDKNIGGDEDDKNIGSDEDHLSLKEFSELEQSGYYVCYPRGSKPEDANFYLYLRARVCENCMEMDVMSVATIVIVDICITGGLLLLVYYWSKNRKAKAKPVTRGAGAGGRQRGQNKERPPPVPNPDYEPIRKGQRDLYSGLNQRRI
Description: (§1) The resulting panel of anti-CD3 antibodies was tested for binding against cell-surface CD3ε on primary human T cells. To do this, binding of antibodies from expression supernatants was visualized using a polyclonal anti-human secondary antibody and analyzed by flow cytometry. Briefly, binding of anti-CD3 antibodies to cell-surface CD3E was assessed by flow cytometry using primary Human T lymphocytes purified by negative selection (Biological Specialty, Colmar, USA). Expression supernatants or purified antibodies were normalized to 10 μg/ml in media or FACS buffer (BD BioSciences), respectively. 2×10⁵ cells were aliquoted into wells of a 96 well round-bottomed plate (CoStar) for labeling. Antibodies in expression supernatant were added to cells and incubated for 45 min at 4° C. Following centrifugation at 1300 rpm for 3 min and removal of supernatant, 50 μL of anti-human IgG (H+L) Alexa Fluor 647 secondary antibody (Life technologies Inc.) was incubated with the cells at a final concentration of 10 μg/mL for 30 min at 4° C. away from direct light. Following washing and resuspension in 30 μL FACs buffer (BD BioSciences). Sample collection was performed on an Intellicyt HTFC system using ForeCyt software. Viable single cells were gated prior to analysis of binding using the green or red fixable live/dead dyes (Life Technologies Inc.) and forward/side scatter area and height parameters, respectively. Graphs were generated in GraphPad Prism version 5 using mean fluorescence intensity values.

[3] = biological target: T3, cynomolgus CD3ε on primary cynomolgus CD4+ T cells (cynomolgus monkey, UniProt Q95LI5 22-198); assay: flow cytometry on primary cynomolgus CD4+ T cells (CD3e), anti-human IgG (H+L) Alexa Fluor 647
T3 construct: whole, on cells
T3 sequence (Q95LI5 22-198): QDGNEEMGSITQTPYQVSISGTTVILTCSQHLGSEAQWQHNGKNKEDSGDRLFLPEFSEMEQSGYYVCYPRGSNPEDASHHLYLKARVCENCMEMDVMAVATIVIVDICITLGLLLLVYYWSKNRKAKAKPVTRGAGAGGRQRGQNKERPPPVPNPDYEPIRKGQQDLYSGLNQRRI
Description: as §1
Binding analysis of the anti-CD3 hits to primary cynomolgus CD4⁺ T cells was then tested in order to assess the retention of cross-reactivity. Purified CD4⁺ T cells from the peripheral blood of cynomolgus monkeys (Zen Bio, Triangle Research Park, USA were used). Assay protocols were similar to those described above.

Binder	binding result [1]	binding result [2]	binding result [3]
B1	binds		
B2	binds		
B3	binds		
B4	binds		
B5	binds		
B6	binds		
B7	binds		
B8	binds		
B9	binds		
B10	binds		
B11	binds		
B12		binds	binds
B13		binds	binds
B14		binds	binds
B15		binds	binds
B16		binds	binds
B17		binds	binds
B18		binds	binds
B19		binds	binds
B20		binds	
B21		binds	binds
B22			binds
